Test results: patent US12605539B2, “Methods and systems for delivering drugs through skin of a body” (PASSPORT TECHNOLOGIES, INC., priority 2019, dated 2026)

Tests used:
[1] = Blood concentration of long-acting protein (Etanercept), patch matrix comparison (Tables 8-10, FIG. 12); format: in vivo, rats; conditions: for peak concentration: 5.0 mg + sucrose 10 mg, 400 pores, 5.2 mJ/filament
Excerpt: Table 8 below provides data of two groups (groups 1 and 2) of microporation values for use with a patch 102 containing a long-acting protein, for example Etanercept. Table 10 below provides details of the components of the patch or drug formulation administered according to the groups 1 and 2. As shown, both groups have the same drug formulation of the long-acting protein and sucrose in the same quantities.
The graph 1200 includes the concentration of the long-acting protein in nanograms/milliliter (ng/mL) along the y-axis and time in hours (hr) along the x-axis. […] The line 1202 represents the group 1 patch 102 with microporation parameter according to Table 8 and patch 102 parameters according to Table 9. The line 1204 represents the group 2 patch 102 with microporation parameter according to Table 8 and patch 102 parameters according to Table 9. The two lines 1202 and 1204 follow different trends. The line 1202 spikes quickly to a peak of above 800 ng/mL and then remains generally between 500 and 700 ng/mL until at least about 70 hours. […] This highlights the effects that the patch 102 parameters can have on the administration of the drug formulation.

[2] = Blood concentration of long-acting protein (Etanercept) after patch with or without microporation or Sub Q; format: in vivo, rats
Excerpt: Table 4 below provides data of one group (group 1) of a patch 102 containing a long-acting protein, for example Etanercept, applied without any microporation, three groups (groups 2-4) of microporation values for use with patches 102, and one group (group 5) of injected administration of the long-acting protein. Table 6 below provides details of the components of the patch or drug formulation administered according to the groups 1-5.
The graph 1100 includes the concentration of the long-acting protein in nanograms/milliliter (ng/mL) along the y-axis and time in hours (hr) along the x-axis. […] The line 1102 represents the group 1 patch 102 with no microporation. The line 1104 represents the group 2 microporation parameters and the group 2 patch 102 parameters. The line 1106 represents the group 3 microporation parameters and the group 3 patch 102 parameters. The line 1108 represents the group 4 microporation parameters and the group 4 patch 102 parameters. The line 1110 represents the injected long-acting protein. Each of the three lines 1104, 1106, and 1108 follow the same general trend. For each of the groups 2-4 of parameters, the concentrations of the long-acting protein generally increase to a maximum concentration relatively quickly before gradually lessening, finally reaching a concentration of 0. The parameters of groups 3 and 4 are shown by line 1106 and 1108 to have the highest concentration level spike while the group 4 parameters result in the higher long term concentration. The parameters of group 2 are shown by line 1104 to have a generally lower concentration levels throughout as compared to the groups 3 and 4 parameters. The group 1 and group 5 administrations are lower than all of the group 2-4 administrations. Thus, for the long-acting protein, the patch administration at skin locations treated with microporation result in better bioavailabilities than even the injected administration of the drug, as detailed in Table 7 below. The graphs 1100 and 1120 also show what effects the additional components in the drug formulation (for example, sucrose, urea, and so forth) may have on the bioavailability and blood concentrations of the long-acting protein in rats.
Based on the graphs 1100 and 1120, the area under the curve for each of groups 1-5 is shown above in Table 7. […] The administrations using the patches 102 with the different microporation parameters are shown to result in the greatest concentration levels of the drug available for the longest durations.

[3] = Blood concentration of long-acting peptide (Semaglutide) after microporation patch, Sub Q or oral administration; format: in vivo, hairless Guinea pigs
Excerpt: Table 1 below provides data of three groups of microporation values used to create pathways in the skin in hairless Guinea pigs before applying the patch 102 containing a long-acting peptide once weekly, for example Semaglutide. Table 2 below provides data of six (6) groups of drug administration: three (3) groups for the patch 102, one (1) group for oral administration of the long-acting peptide, and two (2) groups for injected administration of the long-acting peptide.
Groups 1-3 in Tables 1 and 2 correspond to combinations of patches 102 and the microporation parameters for a particular administration. For example, the group 1 microporation parameters of Table 1 apply in conjunction with the administration of the patch 102 according to the parameters in Group 1 of Table 2. Accordingly, the patch 102 of group 1 has the nonwoven matrix, water holding material thickness of 38 μm, water holding material weight of 12 g/m^2, and WHC of […]. The patch 102 of group 1 includes a drug of 1 mg and a total solid weight of 3.25 mg with an area of 0.5 cm^2. This patch 102 is applied to an area of the skin having 200 pathways created according to the group 1 microporation parameters, where the energy applied to the microporation device is 5.2 mJ/filament, the filaments 200 are made from stainless steel and have a treated area of 10% per square centimeter of skin, where the filaments 200 treat an area of 0.5 cm^2. Similarly, group 2 of the patch 102 parameters applies to group 2 of the microporation parameters and group 3 of the patch 102 parameters applies to group 3 of the microporation parameters.
The graph 1000 includes the concentration of the long-acting peptide in nanograms/milliliter (ng/mL) along the y-axis and time in hours (hr) along the x-axis. […] The line 1002 represents the group 1 microporation parameters and the group 1 patch 102 parameters. The line 1004 represents the group 2 microporation parameters and the group 2 patch 102 parameters. The line 1006 represents the group 3 microporation parameters and the group 3 patch 102 parameters. Each of the three lines 1002, 1004, and 1006 follow the same general trend. For each of the groups 1-3 of parameters, the concentrations of the long-acting peptide generally increase to a maximum concentration relatively quickly before gradually lessening, finally reaching a concentration of 0.
The graph 1020 includes the concentration of the long-acting peptide in nanograms/milliliter (ng/mL) along the y-axis and time in hours (hr) along the x-axis. […] The line 1022 represents the group 4 injected drug. The line 1024 represents the group 5 injected drug. The line 1026 represents the group 6 […] drug. Each of the lines 1022 and 1024 follow the same general trend, rising to a highest level of concentration before gradually falling and approaching a concentration level of 0. […] The parameters of group 5 are shown by line 1024 to have a higher concentration level spike for the duration of the bioavailability of the long-acting polypeptide in the body as compared to the parameters of group 4 shown by line 1022.
The graph 1040 is zoomed out view of the graph 1000, giving a higher level view of the relationships of the lines 1002, 1004, and 1006. Similarly, the graph 1060 is a zoomed out view of the graph 1020, showing that the line 1026 (oral consumption of the long-lasting peptide) hovers around a concentration of 10 ng/mL and is not 0, as it appears from the graph 1020.
Based on the graphs 1000, 1020, 1040, and 1060, the area under the curve for each of groups 1-6 is shown below in Table 3: […]

[4] = group 1: patch 5.0 mg + sucrose 5 mg, without microporation
[5] = group 2: patch 5.0 mg + sucrose 5 mg, 400 pores, 5.2 mJ/filament
[6] = group 3: patch 5.0 mg + sucrose 5 mg + urea 5 mg, 400 pores, 5.2 mJ/filament
[7] = group 4: patch 5.0 mg + sucrose 5 mg + disodium citrate 5 mg, 400 pores, 5.2 mJ/filament

In the case of Etanercept, the peak concentration ([1]; group 1: matrix 38 μm, 12 g/m^2, WHC 4 mg/cm^2) is reported as “above 800 ng/mL”, the “concentration at about 70 hours” value ([1]; group 2 (WHC 30 mg/cm^2)) is reported as “below 100 ng/mL” and the “time of peak concentration” value ([1]; group 2 (WHC 30 mg/cm^2)) is reported as “about 32 hours”. For the same compound, the peak concentration ([1]; group 2: matrix 336 μm, 50 g/m^2, WHC 30 mg/cm^2) was “about 275 ng/mL”, the AUC [2, 4] was 0.172 µg·h/mL and the BA [2, 4] was 0.0%. The Cmax [2, 4] was 9.6 ng/mL, the AUC [2, 5] was 208.5929 µg·h/mL and the BA [2, 5] was 94.3%. For the same compound, the Cmax [2, 5] was 5189.0 ng/mL, the AUC [2, 6] was 604.0884 µg·h/mL and the BA [2, 6] was 99.4%. It also gave a Cmax [2, 6] of 16578.6 ng/mL, an AUC [2, 7] of 712.8251 µg·h/mL and a BA [2, 7] of 117.2%. For the same compound, the Cmax [2, 7] was 16982.4 ng/mL, the AUC ([2]; group 5: Sub Q 1.0 mg) was 121.5723 µg·h/mL and the BA ([2]; group 5: Sub Q 1.0 mg) was 100.0%. It also gave a Cmax ([2]; group 5: Sub Q 1.0 mg) of 1298.7 ng/mL.
For `CC[C@H](C)[C@H](NC(=O)[C@H](Cc1ccccc1)NC(=O)[C@H](CCC(=O)O)NC(=O)[C@H](CCCCNC(=O)COCCOCCNC(=O)COCCOCCNC(=O)CC[C@H](NC(=O)CCCCCCCCCCCCCCCCC(=O)O)C(=O)O)NC(=O)[C@H](C)NC(=O)[C@H](C)NC(=O)[C@H](CCC(N)=O)NC(=O)CNC(=O)[C@H](CCC(=O)O)NC(=O)[C@H](CC(C)C)NC(=O)[C@H](Cc1ccc(O)cc1)NC(=O)[C@H](CO)NC(=O)[C@H](CO)NC(=O)[C@@H](NC(=O)[C@H](CC(=O)O)NC(=O)[C@H](CO)NC(=O)[C@@H](NC(=O)[C@H](Cc1ccccc1)NC(=O)[C@@H](NC(=O)CNC(=O)[C@H](CCC(=O)O)NC(=O)C(C)(C)NC(=O)[C@@H](N)Cc1cnc[nH]1)[C@@H](C)O)[C@@H](C)O)C(C)C)C(=O)N[C@@H](C)C(=O)N[C@@H](Cc1c[nH]c2ccccc12)C(=O)N[C@@H](CC(C)C)C(=O)N[C@H](C(=O)N[C@@H](CCCNC(=N)N)C(=O)NCC(=O)N[C@@H](CCCNC(=N)N)C(=O)NCC(=O)O)C(C)C` [Semaglutide], the BA ([3]; group 1: patch 1 mg (2 mg/cm^2), 0.5 cm^2, 200 pores, 5.2 mJ/filament) was 63.6%, the BA ([3]; group 2: patch 2 mg (2 mg/cm^2), 1.0 cm^2, 400 pores, 5.2 mJ/filament) was 47.0% and the BA ([3]; group 3: patch 4 mg (2 mg/cm^2), 2.0 cm^2, 800 pores, 5.2 mJ/filament) was 31.8%. It also gave a BA ([3]; group 4: Sub Q 0.5 mg) of 81.8%, a BA ([3]; group 5: Sub Q 1.0 mg) of 100.0% and a BA ([3]; group 6: Oral 2.0 mg) of 0.0%.
